Reference: patent US20240124595A1 (UNIVERSITY OF SASKATCHEWAN, published 2024)

Tests used:
[1] = target: T1, recombinant canine IGF2R domains 11-13 Fc fusion protein (canine; human); experiment: competitive Fab-phage ELISA, same protein in solution as competitor
T1 construct: Soluble Fc fusion expressed in Expi293F; also called canine IGF2R fragment; not shown: human IgG1 Fc from a modified pFUSE-hIgG1-Fc2 vector (Invivogen)
T1 chain: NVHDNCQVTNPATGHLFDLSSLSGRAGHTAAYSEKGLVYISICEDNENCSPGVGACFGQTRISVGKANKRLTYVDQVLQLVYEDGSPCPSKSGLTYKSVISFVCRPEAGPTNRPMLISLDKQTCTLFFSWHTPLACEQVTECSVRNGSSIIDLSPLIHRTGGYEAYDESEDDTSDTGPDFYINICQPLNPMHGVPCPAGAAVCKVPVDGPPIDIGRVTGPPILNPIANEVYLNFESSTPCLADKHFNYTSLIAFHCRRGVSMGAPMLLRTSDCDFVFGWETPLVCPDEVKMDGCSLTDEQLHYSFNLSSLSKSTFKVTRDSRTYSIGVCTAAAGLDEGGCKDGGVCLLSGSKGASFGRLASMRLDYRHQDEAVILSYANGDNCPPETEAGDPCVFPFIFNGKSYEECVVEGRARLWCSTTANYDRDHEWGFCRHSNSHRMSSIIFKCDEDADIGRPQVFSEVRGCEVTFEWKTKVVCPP

[2] = target: T2, recombinant murine IGF2R domains 11-13 Fc fusion protein (murine; human, UniProt Q07113 1504-1982); experiment: as above
T2 construct: Soluble Fc fusion expressed in Expi293F; also called murine IGF2R fragment; not shown: human IgG1 Fc from a modified pFUSE-hIgG1-Fc2 vector (Invivogen)

[3] = target: T3, recombinant human IGF2R domains 11-13 Fc fusion protein (human, UniProt P11717 1511-1989); experiment: as above
T3 construct: Soluble Fc fusion expressed in Expi293F; also called human IGF2R fragment; not shown: human IgG1 Fc from a modified pFUSE-hIgG1-Fc2 vector (Invivogen)

[4] = target: T3, recombinant human IGF2R domains 11-13 …; experiment: phage ELISA on recombinant IGF2R Fc fusion
[5] = target: T4, human IGF2R on human osteosarcoma cells (human, UniProt P11717 41-2491); experiment: flow cytometry on human OS cell lines
T4 construct: whole, on cells; Endogenous receptor on tumour cell lines, not transfected cells; also called OS-33
T4 sequence (P11717 41-2491): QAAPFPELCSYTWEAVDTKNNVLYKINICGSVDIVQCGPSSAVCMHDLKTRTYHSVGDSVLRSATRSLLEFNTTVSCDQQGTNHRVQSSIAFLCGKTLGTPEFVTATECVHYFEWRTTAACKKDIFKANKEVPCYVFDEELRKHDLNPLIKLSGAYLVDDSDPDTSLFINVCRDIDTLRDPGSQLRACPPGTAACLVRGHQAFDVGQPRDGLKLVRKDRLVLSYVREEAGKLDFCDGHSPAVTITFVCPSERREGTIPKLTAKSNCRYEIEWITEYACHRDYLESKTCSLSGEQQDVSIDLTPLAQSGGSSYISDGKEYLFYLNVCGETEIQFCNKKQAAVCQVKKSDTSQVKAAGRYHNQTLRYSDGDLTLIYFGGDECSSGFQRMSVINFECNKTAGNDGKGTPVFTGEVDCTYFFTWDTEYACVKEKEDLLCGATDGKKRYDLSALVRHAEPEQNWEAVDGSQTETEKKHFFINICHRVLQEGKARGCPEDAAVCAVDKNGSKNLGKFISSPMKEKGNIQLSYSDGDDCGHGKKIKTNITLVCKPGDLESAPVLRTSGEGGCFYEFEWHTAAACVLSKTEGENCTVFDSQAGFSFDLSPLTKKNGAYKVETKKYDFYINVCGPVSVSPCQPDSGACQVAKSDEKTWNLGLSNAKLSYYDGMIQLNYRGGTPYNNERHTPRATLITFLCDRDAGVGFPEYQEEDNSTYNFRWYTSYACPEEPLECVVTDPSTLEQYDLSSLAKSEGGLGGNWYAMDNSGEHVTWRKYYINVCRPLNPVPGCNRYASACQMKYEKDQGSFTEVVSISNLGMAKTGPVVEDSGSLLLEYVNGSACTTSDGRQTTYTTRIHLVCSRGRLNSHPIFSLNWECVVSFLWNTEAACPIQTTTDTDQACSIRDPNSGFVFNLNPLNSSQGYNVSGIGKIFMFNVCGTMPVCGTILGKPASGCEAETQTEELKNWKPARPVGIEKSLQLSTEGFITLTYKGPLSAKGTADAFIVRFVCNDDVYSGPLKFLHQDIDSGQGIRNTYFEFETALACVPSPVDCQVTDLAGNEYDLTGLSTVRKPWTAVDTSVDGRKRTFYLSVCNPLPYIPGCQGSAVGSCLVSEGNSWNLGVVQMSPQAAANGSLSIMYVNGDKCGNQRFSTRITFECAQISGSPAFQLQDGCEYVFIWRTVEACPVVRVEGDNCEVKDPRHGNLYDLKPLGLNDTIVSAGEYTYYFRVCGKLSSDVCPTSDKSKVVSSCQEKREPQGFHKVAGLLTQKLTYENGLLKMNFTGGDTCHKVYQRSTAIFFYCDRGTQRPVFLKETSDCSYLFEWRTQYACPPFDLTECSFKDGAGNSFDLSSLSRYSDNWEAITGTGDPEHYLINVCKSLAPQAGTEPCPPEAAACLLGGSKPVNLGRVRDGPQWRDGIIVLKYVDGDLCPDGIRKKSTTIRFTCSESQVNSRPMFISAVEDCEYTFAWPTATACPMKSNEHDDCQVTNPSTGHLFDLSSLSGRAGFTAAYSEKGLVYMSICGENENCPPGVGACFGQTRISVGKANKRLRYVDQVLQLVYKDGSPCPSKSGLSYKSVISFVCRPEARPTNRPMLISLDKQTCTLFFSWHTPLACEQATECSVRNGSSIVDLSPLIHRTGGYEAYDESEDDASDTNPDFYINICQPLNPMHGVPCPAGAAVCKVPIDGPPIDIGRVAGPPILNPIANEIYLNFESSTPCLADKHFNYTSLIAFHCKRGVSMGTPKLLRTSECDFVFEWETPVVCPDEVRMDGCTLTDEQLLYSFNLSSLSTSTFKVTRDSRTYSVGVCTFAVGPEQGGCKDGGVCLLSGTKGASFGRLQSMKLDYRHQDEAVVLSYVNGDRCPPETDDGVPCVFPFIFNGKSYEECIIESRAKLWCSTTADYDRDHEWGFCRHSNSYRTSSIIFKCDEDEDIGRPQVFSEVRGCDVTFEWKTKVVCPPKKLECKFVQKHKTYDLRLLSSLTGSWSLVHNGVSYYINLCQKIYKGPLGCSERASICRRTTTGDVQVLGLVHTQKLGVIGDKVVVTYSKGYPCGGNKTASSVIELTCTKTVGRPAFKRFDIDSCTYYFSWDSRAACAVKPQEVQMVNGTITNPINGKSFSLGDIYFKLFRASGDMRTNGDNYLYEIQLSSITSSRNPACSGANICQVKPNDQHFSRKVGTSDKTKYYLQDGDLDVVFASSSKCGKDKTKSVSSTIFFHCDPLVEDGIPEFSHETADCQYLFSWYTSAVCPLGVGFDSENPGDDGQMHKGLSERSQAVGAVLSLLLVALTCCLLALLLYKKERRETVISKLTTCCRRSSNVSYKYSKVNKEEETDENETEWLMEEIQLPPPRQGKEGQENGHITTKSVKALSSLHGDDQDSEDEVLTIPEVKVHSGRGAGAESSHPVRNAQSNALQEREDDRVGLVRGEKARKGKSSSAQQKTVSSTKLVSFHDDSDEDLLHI

[6] = target: T1, recombinant canine IGF2R domains 11-13 …; experiment: ELISA on coated recombinant IGF2R
[7] = target: T2, recombinant murine IGF2R domains 11-13 …; experiment: ELISA on coated recombinant IGF2R
[8] = target: T3, recombinant human IGF2R domains 11-13 …; experiment: ELISA on coated recombinant IGF2R
[9] = target: T5, recombinant murine IGF2R domains 11-13 Fc fusion protein (UniProt Q07113 1504-1982); experiment: ELISA; printed as "IC 50 or EC 50"
T5 chain: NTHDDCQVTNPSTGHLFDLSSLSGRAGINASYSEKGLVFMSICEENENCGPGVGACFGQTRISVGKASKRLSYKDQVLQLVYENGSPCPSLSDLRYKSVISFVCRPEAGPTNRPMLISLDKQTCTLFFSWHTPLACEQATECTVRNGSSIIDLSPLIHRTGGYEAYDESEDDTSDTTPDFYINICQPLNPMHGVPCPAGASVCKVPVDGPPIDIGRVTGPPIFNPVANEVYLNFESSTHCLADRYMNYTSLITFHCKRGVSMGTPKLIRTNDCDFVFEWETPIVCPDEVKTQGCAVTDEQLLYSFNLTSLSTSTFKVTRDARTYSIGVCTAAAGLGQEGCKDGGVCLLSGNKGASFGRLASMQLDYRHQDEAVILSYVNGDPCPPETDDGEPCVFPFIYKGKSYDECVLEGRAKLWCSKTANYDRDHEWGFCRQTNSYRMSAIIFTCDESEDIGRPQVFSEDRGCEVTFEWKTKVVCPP

[10] = target: T6, recombinant human IGF2R domains 11-13 Fc fusion protein (UniProt P11717 1511-1989); experiment: ELISA; printed as "IC 50 or EC 50"
T6 chain: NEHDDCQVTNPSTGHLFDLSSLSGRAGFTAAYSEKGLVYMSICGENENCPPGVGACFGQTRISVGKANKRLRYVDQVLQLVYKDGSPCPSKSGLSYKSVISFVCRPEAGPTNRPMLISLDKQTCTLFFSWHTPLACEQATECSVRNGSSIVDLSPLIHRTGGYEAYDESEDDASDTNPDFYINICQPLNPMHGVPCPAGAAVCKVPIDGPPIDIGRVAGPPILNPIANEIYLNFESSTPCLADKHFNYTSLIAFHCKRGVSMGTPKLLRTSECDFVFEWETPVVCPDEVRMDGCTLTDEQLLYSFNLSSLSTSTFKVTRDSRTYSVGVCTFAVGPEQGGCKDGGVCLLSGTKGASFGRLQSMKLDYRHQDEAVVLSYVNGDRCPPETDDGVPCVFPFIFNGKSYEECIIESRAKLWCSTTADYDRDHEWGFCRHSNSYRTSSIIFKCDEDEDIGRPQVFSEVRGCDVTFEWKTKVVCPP

[11] = target: T7, recombinant canine IGF2R domains 11-13 Fc fusion protein; experiment: ELISA; printed as "IC 50 or EC 50"
T7 chain: T1 chain

B1: IGF2R-Fab-2 (Fab, V domains shown)
VH: EVQLVESGGGLVQPGGSLRLSCAASGFNIKYTYIHWVRQAPGKGLEWVALIDPHYGFTRYADSVKGRFTISADTSKNTAYLQMNSLRAEDTAVYYCSRWYYDHAMDYWGQGTLVTVSS
VL: DIQMTQSPSSLSASVGDRVTITCRASQLVDTAVAWYQQKPGKAPKLLIYFASYLYSGVPSRFSGSRSGTDFTLTISSLQPEDFATYYCQQVVYYPPTFGQGTKVEIK
notes: From the synthetic 4D5-8 (trastuzumab framework) library; also called Fab-phage
binding result [1]: binds
binding result [2]: binds
binding result [3]: binds

B2: IGF2R-Fab-1 (Fab, V domains shown)
VH: EVQLVESGGGVVQPGGSLRLSCAASGFTFSSYAMHWVRQAPGKGLEWVAVISYDGSNKYYADSVKGRFTISRDNSKNTLYLQMNSLRAEDTAVYYCARDDRFFGGMDVWGQGTTVTVSS
VL: AIRMTQSPSSLSASVGDRVTITCRASQDISSWLAWYQQKPDKAPKSLIYAASSLEDGVPSRFSGSGSGTDFTLTISSLQAEDFATYYCQQYNTYPWTFGQGTKVEIK
notes: From the naive library (VH3-30 / VK1); also called Fab-phage
binding result [1]: binds
binding result [2]: binds
binding result [4]: binds

B3: IF1 (antibody, human IgG1, kappa, V domains shown)
VH: B2 VH
VL: AIRMTQSPSSLSASVGDRVTITCRASQDISSWLAWYQQKPDKAPKSLIYAASSLEDGVPSRFSGSGSGTDFTLTISSLQAEDFATYYCQQYNTYPWTFGQGTKVEIKR
notes: Full-length human IgG1 kappa expressed in Expi293F cells; also called IGF2R-IgG#1; full-size human IgG from Fab1
binding result [5]: binds
binding result [6]: binds
binding result [7]: binds
binding result [8]: binds

B4: IF3 (antibody, human IgG1, kappa, V domains shown)
VH: EVQLVESGGGLVQPGGSLRLSCAASGFNIKDTYIHWVRQAPGKGLEWVAFIDPIFGDTRYADSVKGRFTISADTSKNTAYLQMNSLRAEDTAVYYCSRWGGDGFYAMDYWGQGTLVTVSS
VL: DIQMTQSPSSLSASVGDRVTITCRASQDVNTAVAWYQQKPGKAPKLLIYSASFLYSGVPSRFSGSRSGTDFTLTISSLQPEDFATYYCQQAYFFHHFPPTFGQGTKVEIKR
notes: Full-length human IgG1 kappa expressed in Expi293F cells; also called 1F3; IGF2R-IgG#3
binding result [5]: binds
binding result [6]: binds
binding result [7]: binds
binding result [8]: binds
EC50 [9]: 3.06 nM
EC50 [10]: 1.14 nM
EC50 [11]: 3.22 nM

B5: IGF2R-Fab-3 (Fab, V domains shown)
VH: B4 VH
VL: DIQMTQSPSSLSASVGDRVTITCRASQDVNTAVAWYQQKPGKAPKLLIYSASFLYSGVPSRFSGSRSGTDFTLTISSLQPEDFATYYCQQAYFFHHFPPTFGQGTKVEIK
notes: as for B1
binding result [1]: binds
binding result [2]: binds
binding result [3]: binds
